In patent US20210130436A1 (published 2021):

Key:
[1] = target: T1, human CTLA-4 (CTLA4), expressed on CHO cells (human, UniProt P16410 36-223); experiment: flow cytometry on CHO cells stably expressing human CTLA-4; PE anti-human Fc
T1 construct: Full-length surface expression construct transduced by lentivirus into CHO cells; also called huCTLA4

[2] = target: T2, human PD-L1, expressed on CHO cells (human, UniProt Q9NZQ7 19-290); experiment: flow cytometry on CHO cells stably expressing human PD-L1; PE anti-human Fc
T2 construct: Full-length surface expression construct transduced by lentivirus into CHO cells; also called huPD-L1; CD274
T2 sequence (Q9NZQ7 19-290): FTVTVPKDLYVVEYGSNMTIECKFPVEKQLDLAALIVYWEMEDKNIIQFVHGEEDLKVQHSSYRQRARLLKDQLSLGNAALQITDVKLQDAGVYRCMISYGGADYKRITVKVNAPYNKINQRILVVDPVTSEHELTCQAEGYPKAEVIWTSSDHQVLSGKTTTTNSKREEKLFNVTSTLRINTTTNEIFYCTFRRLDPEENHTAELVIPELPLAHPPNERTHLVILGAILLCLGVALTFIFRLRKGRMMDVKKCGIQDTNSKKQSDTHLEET

[3] = target: T3, human PD-L1 (huPD-L1), full-length, stably expressed on CHO cells (human, UniProt Q9NZQ7 19-290); experiment: flow cytometry, CHO cells expressing huPD-L1; MFI against WT CD80 of the table
T3 construct: whole, on cells
T3 sequence (Q9NZQ7 19-290): as above

[4] = target: T4, human CTLA4 (huCTLA4), full-length, stably expressed on CHO cells (human, UniProt P16410 36-223); experiment: flow cytometry, CHO cells expressing huCTLA4
T4 construct: whole, on cells
T4 sequence (P16410 36-223): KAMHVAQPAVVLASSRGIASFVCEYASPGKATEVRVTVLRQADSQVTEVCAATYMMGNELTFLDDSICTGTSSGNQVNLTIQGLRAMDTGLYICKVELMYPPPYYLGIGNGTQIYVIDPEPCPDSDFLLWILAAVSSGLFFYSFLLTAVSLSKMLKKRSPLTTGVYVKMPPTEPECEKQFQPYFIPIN

[5] = target: T3, human PD-L1 (huPD-L1), full-length, …; experiment: flow cytometry; MFI on PD-L1 CHO cells over MFI on Jurkat cells (CD28)
[6] = target: T5, CD28, endogenously expressed on Jurkat/IL2 reporter cells (human, UniProt P10747 19-220); experiment: flow cytometry, Jurkat/IL2 reporter cells (endogenous CD28); MFI against WT CD80 of the table
T5 construct: whole, on cells

[7] = target: T3, human PD-L1 (huPD-L1), full-length, …; experiment: flow cytometry, CHO cells expressing huPD-L1
[8] = target: T5, CD28, endogenously expressed on …; experiment: flow cytometry, Jurkat/IL2 reporter cells (endogenous CD28)
[9] = target: T4, human CTLA4 (huCTLA4), full-length, …; experiment: flow cytometry, CHO cells expressing huCTLA4; MFI against WT CD80 of the table
human CTLA-4 = target: T6, human CTLA-4 (human, UniProt P16410 36-223); experiment: flow cytometry on CHO cells stably expressing CTLA4
T6 construct: also called huCTLA4
T6 sequence (P16410 36-223): as above

human PD-L1 = target: T7, human PD-L1 (human, UniProt Q9NZQ7 19-290); experiment: flow cytometry on CHO cells stably expressing PD-L1
T7 construct: also called huPD-L1; CD274
T7 sequence (Q9NZQ7 19-290): as the sequence (Q9NZQ7 19-290) above

human CD28 = target: T8, human CD28 (human, UniProt P10747 19-220); experiment: flow cytometry on Jurkat cells (CD28)
T8 construct: Endogenous CD28 on Jurkat/IL2 reporter cells

T1 sequence (P16410 36-223): as the sequence (P16410 36-223) above

| MFI at 33.3 nM [1] [MFI] | MFI at 33.3 nM [2] [MFI] | Fold change to WT CD80 [3] [fold] | MFI at 33.3 nM [4] [MFI] | Ratio of PDL1:CD28 [5] [ratio] | Fold change to WT CD80 [6] [fold] | MFI at 33.3 nM [7] [MFI] | MFI at 33.3 nM [8] [MFI] | Fold change to WT CD80 [9] [fold] | Binder | further results |
| --- | --- | --- | --- | --- | --- | --- | --- | --- | --- | --- |
| 278000 | 19200 |  |  |  |  |  |  |  | variant CD80 IgV-Fc E35D/M43I/M47V/K89N (Fc fusion, not shown: small tags and cut ends; a dimerising Fc or GST, Fc fusion of the variant IgV) VIHVTKEVKEVATLSCGHNVSVEELAQTRIYWQKDKKMVLTMISGDVNIWPEYKNRTIFDITNNLSIVILALRPSDEGTYECVVLKYENDAFKREHLAEVTLSVKAD |  |
| 2680 | 21400 |  |  |  |  |  |  |  | variant CD80 IgV-Fc Q33R/E35D/M47V/N48K/L85M/F92L (Fc fusion, not shown: small tags and cut ends; a dimerising Fc or GST, Fc fusion of the variant IgV) VIHVTKEVKEVATLSCGHNVSVEELAQTRIYWRKDKKMVLTMMSGDVKIWPEYKNRTIFDITNNLSIVILALRPSDEGTYECVVMKYEKDALKREHLAEVTLSVKAD |  |
| 226000 | 693 |  |  |  |  |  |  |  | variant CD80 IgV-Fc E35D/M47V/T62A/A71D/K93E (Fc fusion, not shown: small tags and cut ends; a dimerising Fc or GST, Fc fusion of the variant IgV) VIHVTKEVKEVATLSCGHNVSVEELAQTRIYWQKDKKMVLTMMSGDVNIWPEYKNRTIFDIANNLSIVILDLRPSDEGTYECVVLKYEKDAFEREHLAEVTLSVKAD |  |
| 3980 | 72100 |  |  |  |  |  |  |  | variant CD80 IgV-Fc Q33L/E35D/M43I/Y53F/T62S/L85Q (Fc fusion, not shown: small tags and cut ends; a dimerising Fc or GST, Fc fusion of the variant IgV) VIHVTKEVKEVATLSCGHNVSVEELAQTRIYWLKDKKMVLTMISGDMNIWPEFKNRTIFDISNNLSIVILALRPSDEGTYECVVQKYEKDAFKREHLAEVTLSVKAD |  |
|  |  | 486 | 16000 | 65.3 | 12.2 | 25000 | 383 | 9.1 | variant CD80 IgV-Fc E35D/M47L/Y53F/V68M/A71G/K93R/E95V (Fc fusion, not shown: small tags and cut ends; a dimerising Fc or GST) VIHVTKEVKEVATLSCGHNVSVEELAQTRIYWQKDKKMVLTMMSGDLNIWPEFKNRTIFDITNNLSIMILGLRPSDEGTYECVVLKYEKDAFRRVHLAEVTLSVKAD |  |
|  |  | 328 | 16200 | 11.1 | 48.3 | 16900 | 1520 | 9.3 | variant CD80 IgV-Fc E35D/M43I/M47L/V68M (Fc fusion, not shown: small tags and cut ends; a dimerising Fc or GST) VIHVTKEVKEVATLSCGHNVSVEELAQTRIYWQKDKKMVLTMISGDLNIWPEYKNRTIFDITNNLSIMILALRPSDEGTYECVVLKYEKDAFKREHLAEVTLSVKAD |  |
|  |  | 442 | 16600 | 75.4 | 9.6 | 22800 | 302 | 9.5 | variant CD80 IgV-Fc E35D/M47V/N48K/V68M/A71G/L85M (Fc fusion, not shown: small tags and cut ends; a dimerising Fc or GST) VIHVTKEVKEVATLSCGHNVSVEELAQTRIYWQKDKKMVLTMMSGDVKIWPEYKNRTIFDITNNLSIMILGLRPSDEGTYECVVMKYEKDAFKREHLAEVTLSVKAD |  |
| 204000 | 21800 |  |  |  |  |  |  |  | variant CD80 IgV-Fc E35D/M38T/M43V/M47V/N48R/L85Q (Fc fusion, not shown: small tags and cut ends; a dimerising Fc or GST, Fc fusion of the variant IgV) VIHVTKEVKEVATLSCGHNVSVEELAQTRIYWQKDKKTVLTMVSGDVRIWPEYKNRTIFDITNNLSIVILALRPSDEGTYECVVQKYEKDAFKREHLAEVTLSVKAD |  |
|  |  |  |  |  |  |  |  |  | CD80 E35D/M47V/N48K/V68M/K89N IgV-Fc, (EAAAK)3 linker (Fc fusion, not shown: a dimerising Fc or GST) VIHVTKEVKEVATLSCGHNVSVEELAQTRIYWQKDKKMVLTMMSGDVKIWPEYKNRTIFDITNNLSIMILALRPSDEGTYECVVLKYENDAFKREHLAEVTLSVKADEAAAKEAAAKEAAAK | MFI at 33.3 nM (human CTLA-4): 27100 MFI; MFI at 33.3 nM (human PD-L1): 24500 MFI; MFI at 33.3 nM (human CD28): 1280 MFI |
